Test results taken from the supplement of paper PMC9112550, “Optimization of the antimicrobial peptide Bac7 by deep mutational scanning” (BMC Biology, 2022).

tested on: Escherichia coli TOP10; assay: shrunken log2 fold change of peptide-encoding DNA abundance (4.5 h post-induction vs induction); higher = less antimicrobial activity (less host growth inhibition); details: time post-induction: 4.5 h; library: site-saturation at positions 5, 18, 19, 20
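Further: peptides expressed intracellularly from a pBAD plasmid library in pooled LB shake-flask culture, induced with 0.3% L-arabinose, DNA abundance read by NGS, three biological replicates, DESeq2 with apeglm shrinkage.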

Sequence | shrunken log2 fold change
RRIRDRPPRLPRPRPRPLVCPRP | 0.22
RRIRTRPPRLPRPRPRPIMPPRP | -0.331
RRIRNRPPRLPRPRPRPNWWPRP | -0.0262
RRIRSRPPRLPRPRPRPNDTPRP | -0.437
RRIRERPPRLPRPRPRPSERPRP | -0.239
RRIRCRPPRLPRPRPRPNRNPRP | -0.562
RRIRRRPPRLPRPRPRPKCTPRP | -0.373
RRIRERPPRLPRPRPRPDRIPRP | -0.311
RRIRRRPPRLPRPRPRPFQPPRP | 0.331
RRIRQRPPRLPRPRPRPENRPRP | 0.0211
RRIRLRPPRLPRPRPRPICDPRP | 0.0695
RRIRRRPPRLPRPRPRPIWYPRP | 0.00744
RRIRYRPPRLPRPRPRPPDMPRP | -0.625
RRIRSRPPRLPRPRPRPLPCPRP | -0.00277
RRIRERPPRLPRPRPRPNCCPRP | -0.00112
RRIRLRPPRLPRPRPRPNVEPRP | -0.211
RRIRKRPPRLPRPRPRPQSDPRP | 0.247
RRIRSRPPRLPRPRPRPFSRPRP | -0.347
RRIRGRPPRLPRPRPRPTLEPRP | 1.22
RRIRQRPPRLPRPRPRPFPTPRP | -0.0177
RRIRNRPPRLPRPRPRPFIDPRP | -0.114
RRIRPRPPRLPRPRPRPVGKPRP | -0.00576
RRIRYRPPRLPRPRPRPHCYPRP | -0.426
RRIRLRPPRLPRPRPRPLPNPRP | 0.11
RRIRARPPRLPRPRPRPMWHPRP | 0.131

Sequence | shrunken log2 fold change
RRIRQRPPRLPRPRPRPDRFPRP | 0.0204
RRIRKRPPRLPRPRPRPMSWPRP | 5.25
RRIRRRPPRLPRPRPRPAVCPRP | 0.66
RRIRIRPPRLPRPRPRPWREPRP | 0.158
RRIRYRPPRLPRPRPRPGWNPRP | -0.182
RRIRLRPPRLPRPRPRPMRMPRP | -0.076
RRIRGRPPRLPRPRPRPTVQPRP | 0.796
RRIRFRPPRLPRPRPRPNVMPRP | -0.166
RRIRRRPPRLPRPRPRPSKFPRP | -0.0219
RRIRVRPPRLPRPRPRPDWLPRP | -0.0563
RRIRFRPPRLPRPRPRPMLYPRP | -0.567
RRIRCRPPRLPRPRPRPNDCPRP | -0.0147
RRIRGRPPRLPRPRPRPYQHPRP | -0.376
RRIRERPPRLPRPRPRPTKCPRP | 0.0642
RRIRTRPPRLPRPRPRPILVPRP | -0.0468
RRIRWRPPRLPRPRPRPLGHPRP | 0.035
RRIRDRPPRLPRPRPRPTNCPRP | -0.0515
RRIRYRPPRLPRPRPRPACQPRP | -0.142
RRIRGRPPRLPRPRPRPLSFPRP | 0.121
RRIRERPPRLPRPRPRPMWDPRP | -0.0758
RRIRARPPRLPRPRPRPFVEPRP | 0.108
RRIRDRPPRLPRPRPRPKHEPRP | 0.134
RRIRRRPPRLPRPRPRPCQVPRP | 0.0476
RRIRCRPPRLPRPRPRPVVFPRP | -0.123
RRIRFRPPRLPRPRPRPMSNPRP | 0.0556

Sequence | shrunken log2 fold change
RRIRHRPPRLPRPRPRPRFDPRP | -0.163
RRIRVRPPRLPRPRPRPVGTPRP | -0.0358
RRIRNRPPRLPRPRPRPWICPRP | -0.192
RRIRYRPPRLPRPRPRPCQIPRP | -0.00804
RRIRRRPPRLPRPRPRPSYKPRP | -0.563
RRIRRRPPRLPRPRPRPMLHPRP | 0.385
RRIRKRPPRLPRPRPRPSRGPRP | 0.741
RRIRARPPRLPRPRPRPCTPPRP | -0.0509
RRIRWRPPRLPRPRPRPEHKPRP | 0.278
RRIRRRPPRLPRPRPRPHEDPRP | 0.0653
RRIRDRPPRLPRPRPRPRLAPRP | 0.686
RRIRPRPPRLPRPRPRPGQGPRP | 0.201
RRIRGRPPRLPRPRPRPCQHPRP | -0.153
RRIRARPPRLPRPRPRPVVDPRP | 0.399
RRIRKRPPRLPRPRPRPGYNPRP | 0.178
RRIRARPPRLPRPRPRPGSPPRP | 0.394
RRIRKRPPRLPRPRPRPVCAPRP | 0.904
RRIRERPPRLPRPRPRPACQPRP | 0.146
RRIRKRPPRLPRPRPRPAEHPRP | 0.12
RRIRNRPPRLPRPRPRPEIVPRP | 0.106
RRIRMRPPRLPRPRPRPELKPRP | 0.95
RRIRYRPPRLPRPRPRPCNLPRP | -0.958
RRIRHRPPRLPRPRPRPHCFPRP | -0.312
RRIRWRPPRLPRPRPRPHFYPRP | -0.117
RRIRERPPRLPRPRPRPSMKPRP | -0.607

Sequence | shrunken log2 fold change
RRIRRRPPRLPRPRPRPDRGPRP | -0.216
RRIRKRPPRLPRPRPRPTPFPRP | 0.113
RRIRMRPPRLPRPRPRPNSMPRP | -0.22
RRIRRRPPRLPRPRPRPEQYPRP | 0.17
RRIRARPPRLPRPRPRPMYPPRP | -0.79
RRIRHRPPRLPRPRPRPWAPPRP | -0.251
RRIRHRPPRLPRPRPRPMFNPRP | -0.608
RRIRMRPPRLPRPRPRPHKWPRP | 0.216
RRIRYRPPRLPRPRPRPQCIPRP | -0.0693
RRIRCRPPRLPRPRPRPDGEPRP | 0.0622
RRIRCRPPRLPRPRPRPISGPRP | 0.0437
RRIRYRPPRLPRPRPRPNKMPRP | -1.19
RRIRERPPRLPRPRPRPHHFPRP | -0.0117
RRIRTRPPRLPRPRPRPKPVPRP | 0.217
RRIRMRPPRLPRPRPRPRRGPRP | 1.09
RRIRKRPPRLPRPRPRPVLKPRP | 0.185
RRIRCRPPRLPRPRPRPILAPRP | 0.127
RRIRSRPPRLPRPRPRPQGCPRP | -0.0814
RRIRRRPPRLPRPRPRPLMMPRP | 0.8
RRIRQRPPRLPRPRPRPKYVPRP | 0.178
RRIRIRPPRLPRPRPRPFETPRP | -0.231
RRIRKRPPRLPRPRPRPNKAPRP | 0.0692
RRIRVRPPRLPRPRPRPQVTPRP | -0.425
RRIRARPPRLPRPRPRPPCYPRP | 0.146
RRIRVRPPRLPRPRPRPKDCPRP | -0.107

Sequence | shrunken log2 fold change
RRIRTRPPRLPRPRPRPCCSPRP | 0.123
RRIRDRPPRLPRPRPRPYFSPRP | -0.345
RRIRRRPPRLPRPRPRPLFRPRP | 0.109
RRIRSRPPRLPRPRPRPWDDPRP | -0.0242
RRIRGRPPRLPRPRPRPIWNPRP | 0.37
RRIRKRPPRLPRPRPRPPKMPRP | 0.383
RRIRLRPPRLPRPRPRPELLPRP | 0.335
RRIRRRPPRLPRPRPRPVPRPRP | 0.518
RRIRRRPPRLPRPRPRPQDSPRP | -0.0402
RRIRYRPPRLPRPRPRPSFWPRP | -0.122
RRIRKRPPRLPRPRPRPARWPRP | 0.464
RRIRCRPPRLPRPRPRPWYDPRP | -0.0194
RRIRVRPPRLPRPRPRPDEAPRP | -0.0574
RRIRRRPPRLPRPRPRPVAHPRP | 0.605
RRIRWRPPRLPRPRPRPRMVPRP | 0.155
RRIRNRPPRLPRPRPRPQRKPRP | 0.103
RRIRGRPPRLPRPRPRPIYNPRP | -0.185
RRIRLRPPRLPRPRPRPMFSPRP | -0.267
RRIRTRPPRLPRPRPRPANPPRP | 0.0504
RRIRIRPPRLPRPRPRPAYMPRP | -0.688
RRIRSRPPRLPRPRPRPLMWPRP | 0.169
RRIRYRPPRLPRPRPRPDGAPRP | -0.0116
RRIRLRPPRLPRPRPRPWNAPRP | -0.249
RRIRLRPPRLPRPRPRPEDNPRP | 0.0216
RRIRVRPPRLPRPRPRPGNSPRP | 0.0126

Sequence | shrunken log2 fold change
RRIRLRPPRLPRPRPRPHPNPRP | -0.247
RRIRMRPPRLPRPRPRPVEEPRP | 0.292
RRIRMRPPRLPRPRPRPRIHPRP | 0.0221
RRIRYRPPRLPRPRPRPLGMPRP | -0.807
RRIRRRPPRLPRPRPRPCDWPRP | 0.156
RRIRARPPRLPRPRPRPIAMPRP | 0.207
RRIRWRPPRLPRPRPRPHVQPRP | -0.209
RRIRVRPPRLPRPRPRPCLRPRP | -0.146
RRIRLRPPRLPRPRPRPPAEPRP | 0.404
RRIRWRPPRLPRPRPRPPTSPRP | 0.291
RRIRIRPPRLPRPRPRPNYDPRP | -0.638
RRIRGRPPRLPRPRPRPSEDPRP | 0.71
RRIRVRPPRLPRPRPRPNESPRP | -0.374
RRIRPRPPRLPRPRPRPMVWPRP | 0.212
RRIRARPPRLPRPRPRPENFPRP | 0.0336
RRIRRRPPRLPRPRPRPYCTPRP | -0.24
RRIRDRPPRLPRPRPRPGCAPRP | 0.968
RRIRNRPPRLPRPRPRPKMQPRP | -0.0708
RRIRWRPPRLPRPRPRPWERPRP | 0.142
RRIRCRPPRLPRPRPRPFHQPRP | -0.429
RRIRTRPPRLPRPRPRPHVEPRP | 0.0236
RRIRKRPPRLPRPRPRPEYKPRP | 0.0908
RRIRDRPPRLPRPRPRPHSAPRP | 0.0279
RRIRMRPPRLPRPRPRPAEDPRP | 1.93
RRIRSRPPRLPRPRPRPSYTPRP | -0.437
